# T1: human CXCR3 (human, UniProt P49682 1-368)
# T1 sequence: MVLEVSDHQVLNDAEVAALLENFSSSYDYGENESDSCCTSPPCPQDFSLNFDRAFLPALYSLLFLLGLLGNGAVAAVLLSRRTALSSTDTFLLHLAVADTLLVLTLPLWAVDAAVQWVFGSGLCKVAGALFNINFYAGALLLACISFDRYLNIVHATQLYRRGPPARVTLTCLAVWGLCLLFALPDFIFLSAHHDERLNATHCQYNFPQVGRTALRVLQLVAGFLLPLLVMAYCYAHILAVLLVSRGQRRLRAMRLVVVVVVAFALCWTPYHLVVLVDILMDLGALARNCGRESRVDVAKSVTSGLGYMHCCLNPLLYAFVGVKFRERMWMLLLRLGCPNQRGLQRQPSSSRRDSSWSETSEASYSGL
# T2: human CCR3 (human, UniProt P51677 1-355)
# T2 construct: whole, on cells
# T2 sequence (looked up): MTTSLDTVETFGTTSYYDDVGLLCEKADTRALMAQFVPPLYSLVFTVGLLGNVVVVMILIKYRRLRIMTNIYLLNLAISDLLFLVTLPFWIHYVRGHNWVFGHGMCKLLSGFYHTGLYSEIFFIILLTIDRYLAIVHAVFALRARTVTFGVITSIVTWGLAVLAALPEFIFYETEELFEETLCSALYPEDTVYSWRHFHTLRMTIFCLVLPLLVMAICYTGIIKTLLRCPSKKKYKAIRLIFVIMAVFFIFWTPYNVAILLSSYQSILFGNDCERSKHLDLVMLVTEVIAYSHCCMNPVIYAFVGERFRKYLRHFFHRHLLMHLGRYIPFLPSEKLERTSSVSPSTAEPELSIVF
# T3: human CCR4 (human, UniProt P51679 1-360)
# T3 construct: whole, on cells
# T3 sequence (looked up): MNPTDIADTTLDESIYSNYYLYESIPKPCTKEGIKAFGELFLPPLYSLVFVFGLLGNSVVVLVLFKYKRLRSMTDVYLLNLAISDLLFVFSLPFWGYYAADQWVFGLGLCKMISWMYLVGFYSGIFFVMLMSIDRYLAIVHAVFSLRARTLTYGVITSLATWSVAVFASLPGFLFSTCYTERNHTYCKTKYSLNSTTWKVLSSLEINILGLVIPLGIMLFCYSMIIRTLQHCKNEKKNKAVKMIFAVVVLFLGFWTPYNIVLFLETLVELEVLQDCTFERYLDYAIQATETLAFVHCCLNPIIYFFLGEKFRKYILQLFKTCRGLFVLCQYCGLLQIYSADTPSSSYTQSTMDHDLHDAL
# T4: human CXCR1 (human, UniProt P25024 1-350)
# T4 construct: whole, on cells
# T4 sequence (looked up): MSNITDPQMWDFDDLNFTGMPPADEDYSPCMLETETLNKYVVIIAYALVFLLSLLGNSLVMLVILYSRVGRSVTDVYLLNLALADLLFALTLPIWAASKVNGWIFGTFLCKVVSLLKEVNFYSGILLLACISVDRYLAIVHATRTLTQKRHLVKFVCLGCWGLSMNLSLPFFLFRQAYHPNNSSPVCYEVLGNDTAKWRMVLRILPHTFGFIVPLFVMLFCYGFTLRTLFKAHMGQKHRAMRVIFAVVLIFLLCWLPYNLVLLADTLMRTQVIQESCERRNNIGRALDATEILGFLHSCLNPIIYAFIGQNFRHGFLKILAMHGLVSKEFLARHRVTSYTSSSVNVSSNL
# T5: human CXCR2 (human, UniProt P25025 1-360)
# T5 construct: whole, on cells
# T5 sequence (looked up): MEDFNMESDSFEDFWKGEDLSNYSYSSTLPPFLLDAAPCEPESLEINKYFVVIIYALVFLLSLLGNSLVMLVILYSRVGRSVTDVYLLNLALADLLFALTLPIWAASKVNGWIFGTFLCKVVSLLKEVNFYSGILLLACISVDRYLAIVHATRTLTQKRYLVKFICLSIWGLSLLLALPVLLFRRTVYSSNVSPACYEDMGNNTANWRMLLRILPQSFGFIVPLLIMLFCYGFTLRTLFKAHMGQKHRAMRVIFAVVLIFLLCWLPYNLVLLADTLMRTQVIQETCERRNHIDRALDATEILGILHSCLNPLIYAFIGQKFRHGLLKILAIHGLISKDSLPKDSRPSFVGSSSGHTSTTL
# T6: human CCR1 (human, UniProt P32246 1-355)
# T6 construct: whole, on cells
# T6 sequence (looked up): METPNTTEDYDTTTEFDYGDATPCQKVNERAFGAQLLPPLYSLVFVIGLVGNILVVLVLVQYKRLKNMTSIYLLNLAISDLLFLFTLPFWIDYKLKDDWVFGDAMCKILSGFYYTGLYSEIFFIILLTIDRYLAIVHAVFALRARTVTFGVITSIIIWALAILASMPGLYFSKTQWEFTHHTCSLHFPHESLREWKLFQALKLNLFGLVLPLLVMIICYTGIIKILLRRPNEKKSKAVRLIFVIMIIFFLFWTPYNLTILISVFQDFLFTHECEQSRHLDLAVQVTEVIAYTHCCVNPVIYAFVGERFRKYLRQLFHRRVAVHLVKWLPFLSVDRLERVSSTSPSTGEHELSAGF
# What was measured:
# human CXCR3 [1] = molecular target: T1, human CXCR3; assay: cell-based or functional assay
# human CCR3 = molecular target: T2, human CCR3; assay: flow cytometry, hybridoma supernatant on L1.2 transfectants, PE anti-human IgG
# Description: (§1) Three days after the last immunization, five animals were sacrificed, their spleen cells were isolated, combined and used to produce hybridomas by standard methods. About 3×10⁸ spleen cells were fused with 5- to 10-fold fewer SP2/0-Ag14 fusion partner cells (ATCC, No. CRL-1581, Manassas, Va.) or P3X63Ag8.653 fusion partner cells (ATCC, No. CRL-1580, Manassas, Va.), by brief resuspension in polyethylene glycol 1500 (50% in 75 mM HEPES, Boehringer-Mannheim, now Roche Applied Science, Indianapolis, Ind.), to generate the hybridomas. After fusion, the cells were selected by incubation for two weeks in hypoxanthine, aminopterin, thymidine (HAT) medium specificity was assessed by staining CXCR3 transfectants, control L1.2 cells and L1.2 cells that expressed human CCR1, CCR2, CCR3, CCR4, CCR5, CXCR1, CXCR2, or CXCR4 (Qin et al. (1998) J. Clin. Invest. 101:746-54). The binding of antibody from the hybridoma supernatants to receptor transfectants was detected by phycoerythrin-conjugated anti-human IgG with analysis by flow cytometry. Positive wells were those that contained supernatant which stained the CXCR3 transfectants, but not L1.2 cells which expressed the other chemokine receptors tested. Positive wells were subcloned to yield hybridoma cell lines. Hybridoma cultures were maintained in DMEM with 10% fetal calf serum, 10 units/ml interleukin-6, 0.1% L-glutamine, and 0.1% penicillin/streptomycin.
# human CCR4 = molecular target: T3, human CCR4; assay: as above
# Description: as §1
# human CCR5 = molecular target: T7, human CCR5 (human, UniProt P51681 1-352); assay: as above
# T7 construct: whole, on cells
# T7 sequence (P51681 whole entry): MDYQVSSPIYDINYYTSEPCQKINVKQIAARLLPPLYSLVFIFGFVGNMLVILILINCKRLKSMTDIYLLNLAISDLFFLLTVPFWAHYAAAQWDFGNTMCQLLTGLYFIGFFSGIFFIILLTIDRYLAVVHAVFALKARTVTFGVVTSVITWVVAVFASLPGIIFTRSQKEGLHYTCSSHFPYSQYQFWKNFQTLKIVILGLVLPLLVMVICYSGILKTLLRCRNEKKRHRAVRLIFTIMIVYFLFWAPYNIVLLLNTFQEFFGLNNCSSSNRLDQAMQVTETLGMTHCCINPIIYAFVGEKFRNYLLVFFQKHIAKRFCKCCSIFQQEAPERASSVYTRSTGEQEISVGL
# Description: as §1
# human CXCR1 = molecular target: T4, human CXCR1; assay: as above
# Description: as §1
# human CXCR2 = molecular target: T5, human CXCR2; assay: as above
# Description: as §1
# human CXCR4 = molecular target: T8, human CXCR4 (human, UniProt P61073 1-352); assay: as above
# T8 construct: whole, on cells
# T8 sequence (P61073 whole entry): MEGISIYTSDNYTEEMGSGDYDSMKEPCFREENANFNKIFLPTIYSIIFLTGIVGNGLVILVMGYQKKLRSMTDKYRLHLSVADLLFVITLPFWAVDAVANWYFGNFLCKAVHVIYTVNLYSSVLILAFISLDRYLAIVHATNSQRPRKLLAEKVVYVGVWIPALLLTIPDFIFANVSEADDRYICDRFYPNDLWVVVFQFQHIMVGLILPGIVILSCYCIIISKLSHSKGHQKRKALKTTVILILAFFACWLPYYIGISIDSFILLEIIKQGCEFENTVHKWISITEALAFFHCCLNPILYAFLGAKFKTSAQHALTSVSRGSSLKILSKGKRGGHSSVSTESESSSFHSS
# Description: as §1
# human CCR1 = molecular target: T6, human CCR1; assay: as above
# Description: as §1
# human CCR2 = molecular target: T9, human CCR2 (human, UniProt P41597 1-374); assay: as above
# T9 construct: whole, on cells
# T9 sequence (P41597 whole entry): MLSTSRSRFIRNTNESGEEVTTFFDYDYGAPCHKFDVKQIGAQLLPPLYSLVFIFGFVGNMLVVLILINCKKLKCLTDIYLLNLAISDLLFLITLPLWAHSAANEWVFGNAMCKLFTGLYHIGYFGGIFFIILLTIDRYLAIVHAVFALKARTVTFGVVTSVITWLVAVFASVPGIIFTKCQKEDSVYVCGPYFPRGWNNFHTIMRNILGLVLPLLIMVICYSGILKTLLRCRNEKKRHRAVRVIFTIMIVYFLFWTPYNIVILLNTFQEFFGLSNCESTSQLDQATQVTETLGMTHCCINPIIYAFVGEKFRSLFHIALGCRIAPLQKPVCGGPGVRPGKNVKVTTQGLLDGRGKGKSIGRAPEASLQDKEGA
# Description: as §1
# human CXCR3 [2] = molecular target: T1, human CXCR3; assay: flow cytometry on CXCR3 L1.2 transfectants, biotinylated antibody, streptavidin-PE; 100% is the fluorescence at 10 µg/ml
# Description: The strength of human monoclonal antibody 5H7 and human monoclonal antibody 7H5 binding to CXCR3 was measured using CXCR3 transfectants. The mean streptavidin-PE fluorescence detected when 10 μg/ml of each purified mAb was used to stain CXCR3 transfectants was used as 100% fluorescence.
Binder,IC50 of inhibition of chemotaxis of CXCR3 transfectants toward I-TAC (human CXCR3 [1]) [µg/mL],IC50 of inhibition of chemotaxis of CXCR3 transfectants toward IP-10 (human CXCR3 [1]) [µg/mL],IC50 of inhibition of chemotaxis of CXCR3 transfectants toward MIG (human CXCR3 [1]) [µg/mL],binding result (human CCR3),binding result (human CCR4),binding result (human CCR5),binding result (human CXCR1),binding result (human CXCR2),binding result (human CXCR4),binding result (human CCR1),binding result (human CCR2),EC50 (human CXCR3 [2]) [nM]
"human monoclonal antibody 5H7 (antibody, human IgG2, V domains shown, The hybridoma antibody as tested is human IgG2, kappa; also called human mAb 5H7; antibody of hybridoma LS328-5H7-2-6 (ATCC PTA-5388)) VH: QVQVVQSGAEVKKPGASVKVSCKTSGYTFTGNYIHWVRQAPGQGLEWMGWINPNSGGTNFAQKFQGRVTMTRDTSITTAYMVLSRLRSDDTAVYYCARGGNNMIVVARGYYGMDVWGQGTTVTVSS VL: DIQMTQSPSSLSASVGDRVTITCRASQSIGRYLNWYQQKPGKAPKLLIYGASSLQSGVPSRFSGSGSGTEFTLTISSLQPEDFATYYCQQSFRVPISFGQGTRLEIK",1.2,0.7,2.9,no binding,no binding,no binding,no binding,no binding,no binding,no binding,no binding,0.5
"human monoclonal antibody 7H5 (antibody, human IgG2, V domains shown, The hybridoma antibody as tested is human IgG2, kappa; also called human mAb 7H5; antibody of hybridoma LS329-7H5-2-19-7 (ATCC PTA-5389)) VH: QVQVVQSGAEVKKPGASVKVSCKASGYTFTGYYIHWVRQAPGQGLEWMGWINPDSGGTNYAQKFQGRVTMTRDTSISTAYMVLNRLRSDDTAVYYCAKGGINMIVVARGYYGMDVWGQGTTVTVSS VL: DIQMTQSPSSLSASVGDRVTITCRTSQSIGRYLNWYQQKPGKAPKLLIYGASSLQSGVPSRFSGSGSGTEFTFIISSLQPEDFATYYCQQSFRVPITFGQGTRLEIK",–,–,–,no binding,no binding,no binding,no binding,no binding,no binding,no binding,no binding,1.2

# — US20050112119A1 (Takeda / Millennium, published 2005)
